Source: publication PMC10783506

Assays:
[1] = system: LGP2 (insect-cell expressed) (Homo sapiens); assay: fluorescence polarization; conditions: Buffer A: 50 mM MOPS pH 7.4, 5 mM MgCl2, 5 mM DTT, 0.05 mM BSA, 0.01% Tween20, 0-100 mM NaCl (or KCl), with or without ATP, EMSA at 4 C, stopped-flow at 25 C …
[2] = system: RIG-I; assay: EMSA; conditions: 60 nM protein, 20 nM RNA, monovalent streptavidin; mainly monomer; m7G cap and 2'-O-methyl on first nucleotide (Cap1); biotin at distal end; Buffer A: 50 mM MOPS pH 7.4, 5 mM MgCl2, 5 mM DTT, 0.05 mM BSA, 0.01% Tween20; 0-100 mM NaCl (or KCl), with or without ATP; EMSA at 4 C, stopped-flow at 25 C …

Substance 5'OH blunt HP RNA has a Kd ([1]; 5'OH) of 10 nM.

3'-overhang HP RNA showed a binding signal (fold Kd vs 5'OH blunt HP) ([1]; 100 mM KCl) of 10.

Cap1 ds27 RNA-biotin was tested, and the binding signal [2] was 50 % RNA bound.

stem ds26 RNA was tested, and the Kd ([1]; 0 mM NaCl, ATP without effect, 17 bp dsRNA flanked by 4 bp dsDNA ends) was 80 nM.

With ds16 DNA the Kd ([1]; 0 mM NaCl, ATP had little effect on Kd) was 200 nM.

For 5'ppp blunt HP RNA, the Kd ([1]; 5'ppp) was 10 nM.
